The record followed here is the Immune Epitope Database (IEDB).

Test [1] has as its target HLA-A*33:01. The test is described as follows: IEDB peptide-MHC binding, purified MHC/competitive/radioactivity; ≥ and ≤ were set here for values at or beyond the usual limits of such assays.
Test [2] concerns the target HLA-A*66:01. The description is as above.
The target of the next test is HLA-A*68:01. Described as above.
Test [3] deals with HLA-A*30:01. Described as above. As to conditions: source organism: Mus musculus.
Test [4] concerns the target HLA-A*11:01. The test is described as above.
A further test addresses HLA-A*31:01. The test is described as above.
For the next test, the target named is HLA-A*03:01. The test is described as above.
Another test deals with HLA-B*42:01. The test is described as above.
A further test addresses HLA-B*07:02. The description is as above.
A further test has as its target HLA-B*53:01. The test is described as above.
Test [5] has as its target HLA-A*30:01. The test is described as follows: IEDB peptide-MHC binding, purified MHC/competitive/radioactivity; filed as Kd, often an IC50 or EC50 that approximates it; ≥ and ≤ were set here for values at or beyond the usual limits of such assays. As to conditions: source organism: Homo sapiens.
The target of test [6] is HLA-A*11:01. The description is as above. As to conditions: source organism: Mus musculus.
Test [7] has as its target HLA-A*33:01. The description is as above. As to conditions: source organism: Homo sapiens.
In a further test the target is HLA-B*35:03. The test is described as follows: IEDB peptide-MHC binding, purified MHC/competitive/radioactivity; ≥ and ≤ were set here for values at or beyond the usual limits of such assays. As to conditions: source organism: Mus musculus.
The target of another test is HLA-B*54:01. The test is described as follows: IEDB peptide-MHC binding, purified MHC/competitive/radioactivity; filed as Kd, often an IC50 or EC50 that approximates it; ≥ and ≤ were set here for values at or beyond the usual limits of such assays. As to conditions: source organism: Mus musculus.
The target of a further test is HLA-B*35:01. Described as above. As to conditions: source organism: Mus musculus.
In the next test the target is HLA-B*51:01. The description is as above. Conditions: source organism: Mus musculus.
For test [8], the target named is HLA-A*66:01. Described as above. Conditions: source organism: Mus musculus.

Consider AINSEMFLR, for which the half-maximal inhibitory concentration (IC50) with HLA-A*33:01 [1] (source organism: Mus musculus) stood at 1.08 µM; with HLA-A*66:01 [2] (source organism: Mus musculus) it was 4.55 µM; with HLA-A*68:01 (source organism: Mus musculus) it was 0.109 µM; in the test with HLA-A*30:01 [3], 49.8 µM; with HLA-A*11:01 [4] (source organism: Mus musculus) it was 0.209 µM; with HLA-A*31:01 (source organism: Mus musculus), 0.067 µM. Moreover, in the test with HLA-A*03:01 (source organism: Mus musculus), the IC50 amounted to 0.428 µM.
For GPGAGSLQPLAL, the IC50 is 6.07 µM with HLA-B*42:01 (source organism: Homo sapiens), 462 nM in the test with HLA-B*07:02 (source organism: Homo sapiens) and 15.5 µM with HLA-B*53:01 (source organism: Homo sapiens).
As for LALEGSLQKR, the IC50 with HLA-A*33:01 [1] (source organism: Homo sapiens) turned out to be 3.27 µM; with HLA-A*66:01 [2] (source organism: Homo sapiens), 0.515 µM; with HLA-A*68:01 (source organism: Homo sapiens), 0.066 µM; with HLA-A*11:01 [4] (source organism: Homo sapiens) it was 34.5 µM; with HLA-A*31:01 (source organism: Homo sapiens) it was 38.4 µM; with HLA-A*03:01 (source organism: Homo sapiens) it was 17.5 µM. In addition, the Kd in the test with HLA-A*30:01 [5] was at least 50 µM.
In the case of LALEVARQKR, the IC50 in the test with HLA-A*33:01 [1] (source organism: Mus musculus) was 9.14 µM; with HLA-A*66:01 [2] (source organism: Mus musculus) it was 13 µM; in the test with HLA-A*68:01 (source organism: Mus musculus) it was 12.6 µM; in the test with HLA-A*30:01 [3], 43 µM; with HLA-A*31:01 (source organism: Mus musculus), 10.8 µM; with HLA-A*03:01 (source organism: Mus musculus) it was 43.6 µM. For the same sequence, in the test with HLA-A*11:01 [6], the Kd is at least 50 µM.
As for PLALEGSLQ, the IC50 with HLA-A*66:01 [2] (source organism: Homo sapiens) was found to be 48.5 µM; in the test with HLA-A*68:01 (source organism: Homo sapiens), 41.5 µM; with HLA-A*11:01 [4] (source organism: Homo sapiens), 37.1 µM; in the test with HLA-A*31:01 (source organism: Homo sapiens), 39.4 µM; with HLA-A*03:01 (source organism: Homo sapiens), 20.9 µM. The Kd in the test with HLA-A*33:01 [7] and with HLA-A*30:01 [5] was at least 50 µM each time.
As for SPGDLQTLAL, the concentration for half-maximal inhibition (IC50) with HLA-B*42:01 (source organism: Mus musculus) came out at 0.035 µM; in the test with HLA-B*07:02 (source organism: Mus musculus), 4.4 nM; with HLA-B*35:03 it was 16.1 µM; with HLA-B*53:01 (source organism: Mus musculus) it was 11 µM. For the same sequence, the equilibrium dissociation constant (Kd) with HLA-B*54:01, with HLA-B*35:01 and with HLA-B*51:01 was at least 50 µM each time.
TLALEVARQK: the half-maximal inhibitory concentration (IC50) was 25.5 µM in the test with HLA-A*33:01 [1] (source organism: Mus musculus); 13.4 µM in the test with HLA-A*68:01 (source organism: Mus musculus); 23.3 µM in the test with HLA-A*30:01 [3]; 3.33 µM with HLA-A*11:01 [4] (source organism: Mus musculus); 13 µM in the test with HLA-A*31:01 (source organism: Mus musculus); 0.605 µM with HLA-A*03:01 (source organism: Mus musculus). In the test with HLA-A*66:01 [8], the dissociation constant Kd was at least 50 µM.

As a reminder, the IC50 is the concentration at which inhibition is half-maximal. A word on the Kd: it is the equilibrium constant for the complex coming apart.
